The record followed here is publication PMC6477699, “Phylogenetic Analyses and GAGA-Motif Binding Studies of BBR/BPC Proteins Lend to Clues in GAGA-Motif Recognition and a Regulatory Role in Brassinosteroid Signaling”.

Data set [1] deals with T1, GFP-BPC6 (Arabidopsis thaliana, UniProt Q8L999 1-342).
T1 sequence: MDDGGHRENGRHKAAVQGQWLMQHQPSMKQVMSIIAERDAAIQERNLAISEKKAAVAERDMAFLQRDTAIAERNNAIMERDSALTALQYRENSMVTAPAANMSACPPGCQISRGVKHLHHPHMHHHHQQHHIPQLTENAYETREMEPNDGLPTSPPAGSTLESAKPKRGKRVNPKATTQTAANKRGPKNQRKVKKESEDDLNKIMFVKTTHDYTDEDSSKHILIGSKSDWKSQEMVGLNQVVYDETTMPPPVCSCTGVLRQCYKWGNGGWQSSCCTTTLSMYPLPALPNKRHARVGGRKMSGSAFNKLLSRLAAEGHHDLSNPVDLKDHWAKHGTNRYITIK
The data set is described as follows: qDPI-ELISA; similar to the other 2x GAGA probes; DPI-ELISA/qDPI-ELISA: 3 ug total E. coli protein extract and 2 pmol biotinylated dsDNA per well in buffered solution; salt, pH and temperature not stated (cited protocols). Particulars: protein: recombinant; tags: GFP fusion; label: biotin on sense strand. In general terms: ELISA stands for enzyme-linked immunosorbent assay.

In data set [2] the target is T1, GFP-BPC6. The data set can be described thus: qDPI-ELISA; negative binding probe, used as background; DPI-ELISA/qDPI-ELISA: 3 ug total E. coli protein extract and 2 pmol biotinylated dsDNA per well in buffered solution; salt, pH and temperature not stated (cited protocols). Particulars: protein: recombinant; tags: GFP fusion; label: biotin on sense strand.
A further data set addresses T2, BPC1-WARH (Arabidopsis thaliana, UniProt Q9SKD0 1-270).
T2 sequence: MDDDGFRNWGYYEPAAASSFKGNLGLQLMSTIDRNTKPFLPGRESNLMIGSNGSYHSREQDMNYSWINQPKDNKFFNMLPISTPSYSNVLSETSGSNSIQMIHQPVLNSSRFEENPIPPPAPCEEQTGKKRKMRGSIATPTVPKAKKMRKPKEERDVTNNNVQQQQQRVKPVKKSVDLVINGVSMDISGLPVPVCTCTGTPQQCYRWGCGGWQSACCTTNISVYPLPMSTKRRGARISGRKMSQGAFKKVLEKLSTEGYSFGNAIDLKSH
The data set can be described thus: DPI-ELISA; DPI-ELISA/qDPI-ELISA: 3 ug total E. coli protein extract and 2 pmol biotinylated dsDNA per well in buffered solution; salt, pH and temperature not stated (cited protocols). Particulars: protein: recombinant; tags: N-terminal 6xHis (pET32b-GW); label: 5' or 3' biotin not specified, sense strand biotin.

The target of a further data set is T3, BPC1-TIR (Arabidopsis thaliana, UniProt Q9SKD0 1-280).
T3 sequence: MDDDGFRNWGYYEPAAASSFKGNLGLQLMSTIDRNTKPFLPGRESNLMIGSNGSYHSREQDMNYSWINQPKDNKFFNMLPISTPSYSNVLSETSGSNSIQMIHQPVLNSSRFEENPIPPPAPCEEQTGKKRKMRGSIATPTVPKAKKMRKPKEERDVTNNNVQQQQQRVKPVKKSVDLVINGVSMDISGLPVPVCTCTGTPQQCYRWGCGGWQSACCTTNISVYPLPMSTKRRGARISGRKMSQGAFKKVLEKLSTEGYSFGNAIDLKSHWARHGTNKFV
The data set is described as follows: DPI-ELISA; about 30% less than wild type; DPI-ELISA/qDPI-ELISA: 3 ug total E. coli protein extract and 2 pmol biotinylated dsDNA per well in buffered solution; salt, pH and temperature not stated (cited protocols). To be noted: protein: recombinant; tags: N-terminal 6xHis (pET32b-GW); label: 5' or 3' biotin not specified, sense strand biotin.

The target of data set [3] is T4, BPC1 (Arabidopsis thaliana, UniProt Q9SKD0 1-283).
T4 sequence: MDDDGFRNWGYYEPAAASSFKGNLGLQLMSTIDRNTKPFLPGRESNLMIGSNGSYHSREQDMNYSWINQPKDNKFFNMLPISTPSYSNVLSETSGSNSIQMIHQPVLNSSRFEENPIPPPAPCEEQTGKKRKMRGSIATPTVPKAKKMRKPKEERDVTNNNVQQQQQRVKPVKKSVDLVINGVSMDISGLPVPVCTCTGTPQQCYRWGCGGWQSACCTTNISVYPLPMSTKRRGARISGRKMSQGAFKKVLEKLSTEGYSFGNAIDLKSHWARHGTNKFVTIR
The data set can be described thus: DPI-ELISA; DPI-ELISA/qDPI-ELISA: 3 ug total E. coli protein extract and 2 pmol biotinylated dsDNA per well in buffered solution; salt, pH and temperature not stated (cited protocols). To be noted: protein: recombinant; tags: N-terminal 6xHis (pET32b-GW); label: biotin on sense strand.

Data set [4] addresses T1, GFP-BPC6. The data set is described as follows: qDPI-ELISA; DPI-ELISA/qDPI-ELISA: 3 ug total E. coli protein extract and 2 pmol biotinylated dsDNA per well in buffered solution; salt, pH and temperature not stated (cited protocols). Particulars: protein: recombinant; tags: GFP fusion; label: biotin on sense strand.
Data set [5] concerns the target T1, GFP-BPC6. The data set can be described thus: qDPI-ELISA; 2.5-times lower than BKn3; DPI-ELISA/qDPI-ELISA: 3 ug total E. coli protein extract and 2 pmol biotinylated dsDNA per well in buffered solution; salt, pH and temperature not stated (cited protocols). Particulars: protein: recombinant; tags: GFP fusion; label: biotin on sense strand.
Data set [6] has as its target T4, BPC1. The data set is described as follows: DPI-ELISA; comparable to K4; DPI-ELISA/qDPI-ELISA: 3 ug total E. coli protein extract and 2 pmol biotinylated dsDNA per well in buffered solution; salt, pH and temperature not stated (cited protocols). Particulars: protein: recombinant; tags: N-terminal 6xHis (pET32b-GW); label: biotin on sense strand.

B1: GAGA2 (dsDNA)
DNA 1: GGAGCAAGTAAGAGATGAAACGAGAGTTTC
DNA 2: GAAACTCTCGTTTCATCTCTTACTTGCTCC
Take B1: the binding result with GFP-BPC6 [1] is “binds”.

B2: Kneg (dsDNA)
DNA 1: TAATGCAGCAAGTAAGACTACGACTGTTTC
DNA 2: GAAACAGTCGTAGTCTTACTTGCTGCATTA
On to B2, for which the binding result in the data set with GFP-BPC6 [2] was “no binding”.

B3: K4mut7mut5 (dsDNA)
DNA 1: TAAAGGAGCAAGTAAGAGAACGAGAGTTTC
DNA 2: GAAACTCTCGTTCTCTTACTTGCTCCTTTA
On to B3, for which the binding result in the data set with GFP-BPC6 [1] is listed as “binds”.

B4: K12 (dsDNA)
DNA 1: AATTGGAAATATGGAGAGAGAAAACAAATC
DNA 2: GATTTGTTTTCTCTCTCCATATTTCCAATT
Regarding B4, the binding result with GFP-BPC6 [1] is “binds”.

B5: K4 (dsDNA)
DNA 1: TAAAGGAGAAAGAAAGAGAAAGAGAGTTTC
DNA 2: GAAACTCTCTTTCTCTTTCTTTCTCCTTTA
As to B5, the binding result with BPC1-WARH is reported as “no binding”. The binding signal with BPC1-TIR is ~70 % of wild-type BPC1 signal.

B6: BKn3 (dsDNA)
DNA 1: CCGCCATTAATTCATGAGAGAGAGAGAGAGACCAGAGATAA
DNA 2: TTATCTCTGGTCTCTCTCTCTCTCTCATGAATTAATGGCGG
B6: the binding signal was ~2 fold of K4 signal in the data set with BPC1 [3] and ~2.5 fold of KNAT1/BP fluorescence with GFP-BPC6 [4].

B7: KNAT1/BP (dsDNA)
DNA 1: ATGAGGGCAAAGAGAGATGAGAGAAAATTTATACGTAC
DNA 2: GTACGTATAAATTTTCTCTCATCTCTCTTTGCCCTCAT
With B7, the binding result with GFP-BPC6 [5] and with BPC1 [6] was “binds” in each case.
